Measured values: publication PMC11109976, “CSB and SMARCAL1 compete for RPA32 at stalled forks and differentially control the fate of stalled forks in BRCA2-deficient cells” (Nucleic Acids Research, 2024)
One block for each molecule: values may come before it.

How the values were obtained:
[1] = target: RPA32C C-terminal domain (Homo sapiens) (UniProt P15927); assay: ITC; conditions: cited from earlier work
[2] = target: T1, RPA32 construct spanning the region 210-270 (UniProt P15927 210-270, RED-tris-NTA dye on the His tag); assay: MST; RPA32C labelled with RED-tris-NTA (His-tag labelling kit), 100 nM mixed 1:1 with 2-fold serial dilutions of the ligand; 50 mM HEPES pH 8.0, 400 mM NaCl, 10% glycerol, 0.05% Tween-20; incubated 30 min at 37°C, measured at 25°C; three replicates; conditions: both partners purified
T1 construct: RPA32, residues 210-270 (C-terminal winged helix domain); Cloned by LIC; also called RPA32(210-270); C-terminal winged helix domain of RPA32; source: E. coli SoluBL21, purified (Ni-NTA, anion exchange, SEC)
T1 sequence (P15927 210-270): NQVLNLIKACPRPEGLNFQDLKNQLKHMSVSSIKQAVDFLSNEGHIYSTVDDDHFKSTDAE

Chain of RPA32C C-terminal domain (Homo sapiens) (P15927 202-270): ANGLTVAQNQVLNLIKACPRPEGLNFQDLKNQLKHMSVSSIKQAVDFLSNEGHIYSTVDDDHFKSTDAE

Molecule: SMARCAL1 peptide 5-30 (from UniProt Q9NZC9)
- Kd [1]: 2900 nM

- Kd [2]: 470 µM
B1: SMARCAL1 peptide (residues 5-30) (peptide)
peptide: LTEEQRKKIEENRQKALARRAEKLLA
notes: SMARCAL1, residues 5-30; also called 26-amino acid SMARCAL1 peptide; source: synthetic peptide, bought: LifeTein, LLC
